Results on 6 compounds are retold here after PMC11218721, “Receptor-Targeted Peptide Conjugates Based on Diphosphines Enable Preparation of ^99mTc and ^188Re Theranostic Agents for Prostate Cancer” (Journal of Nuclear Medicine, 2024).

Like-named read-outs stand apart in the source and are kept apart here.

One series has as its system PC3 cells. In words: Radiotracer uptake in PC3 cells (non-PSMA-expressing). The series is classed as cell-based. To be noted: 100 kBq, 1 h, 37°C; cells do not express PSMA. The procedure:
(§1) Solutions containing radiotracer (100 kBq in 8–12 μL of phosphate-buffered saline, >95% radiochemical purity) were added to DU145-PSMA+ or LNCaP prostate cancer cells ([22]), and the cells were incubated at 37°C for 1 h. Nonspecific uptake was determined using non–PSMA-expressing cells (DU145, PC3) or by blocking PSMA-expressing cells (DU145-PSMA+, LNCaP) with 2-phosphonomethyl pentanedioic acid (PMPA). After incubation, the cells were washed and samples collected for radioactivity counting. Uptake and localization of ^99mTc radiotracers were measured over time (15, 30, 60, and 120 min) in DU145-PSMA+ or LNCaP cells (supplemental materials).
(§2) To assess the specificity of the new radiotracers for PSMA, [^99mTc]Tc-DP1-PSMAt and [^99mTc]Tc-DP2-PSMAt (100 kBq) were each incubated with DU145-PSMA+ prostate cancer cells (DU145 cells transfected to express PSMA receptor) ([22]). After 1 h of incubation, uptake of each radiotracer was quantified. […] In LNCaP cells, uptake of [^99mTc]Tc-DP1-PSMAt and [^99mTc]Tc-DP2-PSMAt measured 3.7 ± 1.2 %AR and 3.0 ± 0.8 %AR, respectively, whereas uptake of both radiotracers in PC3 cells measured less than 0.3 %AR.
(§3) FIGURE 2. (A) Uptake of radiotracers in PSMA-positive and PSMA-negative prostate cancer cells. (B) Time course uptake and localization of ^99mTc radiotracers in DU145-PSMA cells and LNCaP cells. Data are presented as mean ± SD; n = 3–4 biologic repeats performed in triplicate.

The test system of series [1] is LNCaP prostate cancer cells, which natively express PSMA. Description: Radiotracer uptake in LNCaP prostate cancer cells. The series is classed as cell-based. To be noted: 37°C; for uptake in LNCaP cells: 100 kBq radiotracer, 1 h incubation, percentage added radioactivity, mean ± SD, n = 3–4 biologic repeats in triplicate; for uptake in LNCaP cells with PMPA block: blocked with PMPA, 1 h. As for the experimental part: as §1, §2, §3

Series [2] relates to parental DU145 cells that do not express PSMA. Description: Radiotracer uptake in parental DU145 cells (non-PSMA-expressing). The series is classed as cell-based. The following applies: 100 kBq, 1 h, 37°C. The procedure:
as §1, §2, §3

The subject of series [3] is DU145-PSMA+ prostate cancer cells (DU145 cells transfected to express PSMA receptor). In words: Radiotracer uptake in DU145-PSMA+ prostate cancer cells. The series is classed as cell-based. To be noted: 37°C; for uptake in DU145-PSMA+ cells: 100 kBq radiotracer, 1 h incubation, percentage added radioactivity, mean ± SD, n = 3–4 biologic repeats in triplicate; for uptake in DU145-PSMA+ cells with PMPA block: coincubated with PSMA inhibitor PMPA, 1 h. The procedure: as §1, §2, §3

Series [4] deals with DU145-PSMA+ xenograft tumors. In words: Ex vivo biodistribution in SCID/beige mice bearing DU145-PSMA+ xenograft tumors. To be noted: for effect of PMPA coadministration on spleen uptake (in words) / effect of PMPA coadministration on tumor uptake (in words): SCID/beige mice bearing DU145-PSMA+ tumors, 2 h after injection; for radioactivity concentration in DU145-PSMA+ tumors: male, SCID/beige, mouse, in vivo, iv, 2 h. As for the experimental part:
(§4) All animal experiments were ethically reviewed by an Animal Welfare and Ethical Review Board at either King’s College London or Barts Cancer Institute and were performed in accordance with the Animals (Scientific Procedures) Act 1986 U.K. Home Office regulations governing animal experimentation. Subcutaneous prostate cancer DU145-PSMA+ or DU145 xenografts were produced in SCID/beige mice (male, 7–12 wk old). Subcutaneous LNCaP prostate cancer xenografts were produced in athymic nude mice (Crl:NU(NCr)-Foxn1^nu, male, 6–7 wk old). SPECT/CT and biodistribution studies using ^99mTc and ^188Re radiotracers were performed once a tumor had reached an appropriate size (supplemental materials).
(§5) The biodistributions of [^99mTc]Tc-DP1-PSMAt and [^99mTc]Tc-DP2-PSMAt were assessed in male SCID/beige mice bearing DU145-PSMA+ xenograft tumors (Fig. 3). Each mouse was administered either [^99mTc]Tc-DP1-PSMAt or [^99mTc]Tc-DP2-PSMAt and euthanized at 2 h after injection (n = 5), followed by organ harvesting for ex vivo radioactivity counting.
(§6) FIGURE 3. (A) Biodistribution (2 h after injection) of SCID/beige mice bearing DU145-PSMA+ prostate cancer tumors, administered either ^99mTc or ^188Re radiotracers intravenously. To assess specificity of radiotracer uptake, additional groups of mice were also coadministered radiotracer and PMPA (Supplemental Tables 3 and 4). (B) Whole-body SPECT/CT maximum-intensity projections of SCID/beige mice bearing either DU145-PSMA+ tumors or DU145 tumors, administered either [^99mTc]Tc-DP1-PSMAt or [^99mTc]Tc-DP2-PSMAt, 2 h after injection. To inhibit uptake in DU145-PSMA+ tumors, animals were also coadministered PMPA.
(§7) To assess the specificity of each radiotracer, separate groups of animals, also bearing DU145-PSMA+ tumors, were coadministered either [^99mTc]Tc-DP1-PSMAt and PMPA or [^99mTc]Tc-DP2-PSMAt and PMPA to inhibit PSMA-mediated uptake of radiotracer (n = 5). […] For [^99mTc]Tc-DP1-PSMAt, coadministration decreased uptake to 0.91 ± 0.29 %ID/g in tumors (compared with administration of [^99mTc]Tc-DP1-PSMAt only: mean difference of 17.12 %ID/g, P = 4 × 10^−4). For [^99mTc]Tc-DP2-PSMAt, coadministration decreased uptake to 0.76 ± 0.45 %ID/g in tumors (compared with administration of [^99mTc]Tc-DP2-PSMAt only: mean difference of 28.62 %ID/g, P = 5 × 10^−4).

Another series in a line: in vivo. Further details: species or system mice. To be noted: male, SCID/beige, mouse, total radioactivity. The procedure:
as §4
Additionally, groups of mice bearing non–PSMA-expressing parental DU145 tumors were also administered these ^99mTc radiotracers. For these groups, tumor uptake of [^99mTc]Tc-DP1-PSMAt decreased to 0.24 ± 0.07 %ID/g, and tumor uptake of [^99mTc]Tc-DP2-PSMAt decreased to 0.18 ± 0.07 %ID/g (Supplemental Fig. 3).

Series [5] is described as follows: Ex vivo biodistribution in SCID/beige mice bearing DU145-PSMA+ xenograft tumors. To be noted: male, SCID/beige, mouse, in vivo, iv, total radioactivity. As for the experimental part:
as §4, §5, §6, §7

Series [6] is described as follows: Ex vivo biodistribution in athymic nude mice bearing LNCaP xenografts. To be noted: male, athymic nude (Crl:NU(NCr)-Foxn1^nu), mouse, total radioactivity. The procedure:
as §4
With a view to developing a molecular [^188Re]Re-labeled agent for PSMA PRRT, we further characterized the biodistribution profiles of [^188Re]Re-DP1-PSMAt and [^188Re]Re-DP2-PSMAt in male athymic nude mice bearing LNCaP xenografts (Fig. 4), which recapitulate clinical metastatic prostate cancer more closely than DU145-PSMA+ xenografts. […] In mice administered [^188Re]Re-DP1-PSMAt, LNCaP tumor uptake measured 7.0 ± 2.3 %ID/g at 2 h after injection and 2.9 ± 0.8 %ID/g at 24 h after injection. For [^188Re]Re-DP2-PSMAt, LNCaP tumor uptake measured 9.8 ± 2.8 %ID/g at 2 h after injection and 7.6 ± 4.4 %ID/g at 24 h after injection.
FIGURE 4. (A–C) Biodistribution of ^188Re in athymic nude mice bearing LNCaP prostate cancer tumors, administered either [^188Re]Re-DP1-PSMAt or [^188Re]Re-DP2-PSMAt at 2 h after injection (A), at 24 h after injection (B), and at 2 h after injection (C) with coadministration of Gelofusine. (D) Additionally, biodistributions of [^99mTc]Tc-DP1-PSMAt and [^99mTc]Tc-DP2-PSMAt at 2 h after injection were measured (Supplemental Tables 5–8). GI = gastrointestinal tract.

[7] abbreviates: SCID/beige mice bearing DU145-PSMA+ tumors, 2 h after injection, read-out: radioactivity concentration in kidneys.
Where [8] appears, read: SCID/beige mice, 2 h after injection, PMPA coadministered, n = 5, read-out: DU145-PSMA+ tumor uptake with coadministration of PMPA.
[9] abbreviates: SCID/beige mice, 2 h after injection, PMPA coadministered, read-out: radioactivity concentration in spleen with PMPA.
Setting [10] is: radioactivity concentration in DU145-PSMA+ tumors.
Setting [11] is: radioactivity concentration in spleen.
Where [12] appears, read: athymic nude mice bearing LNCaP tumors, 2 h after injection, Gelofusine coadministered, read-out: kidney retention with coadministration of Gelofusine.
The mark [13] stands for this setting: athymic nude mice bearing LNCaP tumors, 2 h after injection, read-out: concentration in kidneys at 2 h.
Setting [14] is: athymic nude mice bearing LNCaP tumors, 24 h after injection, read-out: concentration in kidneys at 24 h.

Regarding `O=C(O)CC[C@H](NC(=O)N[C@@H](CCCCNC(=O)CCOCCOCCOCCOCCNC(=O)/C(=C(\C(=O)O)P(c1ccccc1)c1ccccc1)P(c1ccccc1)c1ccccc1)C(=O)O)C(=O)O` [[^188Re]Re-DP1-PSMAt] [metal not drawn], the “uptake in PC3 cells (in words)” value with PC3 cells is “negligible uptake”. In series [1], the “uptake in LNCaP cells” value amounted to 2.8 ± 1.6 %AR and the “uptake in LNCaP cells with PMPA block” value was “could be blocked with PMPA”. Further, the “uptake in parental DU145 cells” value in series [2] is given as “negligible uptake”. In series [3], the “uptake in DU145-PSMA+ cells” value is listed as 13.5 ± 2.7 %AR and the “uptake in DU145-PSMA+ cells with PMPA block” value is on record as “could be blocked with PMPA”. Moreover, in series [4], the “effect of PMPA coadministration on spleen uptake (in words)” value is listed as “significantly inhibited uptake”, the “effect of PMPA coadministration on tumor uptake (in words)” value is reported as “significantly inhibited uptake” and the “radioactivity concentration in DU145-PSMA+ tumors” value stood at 27.7 ± 6.4 %ID/g.

In the case of `O=C(O)CC[C@H](NC(=O)N[C@@H](CCCCNC(=O)CCOCCOCCOCCOCCNC(=O)/C(=C(\C(=O)O)P(c1ccccc1)c1ccccc1)P(c1ccccc1)c1ccccc1)C(=O)O)C(=O)O` [[^99mTc]Tc-DP1-PSMAt, metal not drawn], the tissue uptake at 2 h is 0.24 ± 0.07 %ID/g in the series “in vivo”; 116 ± 27.3 %ID/g in series [5] (setting [7]); 0.91 ± 0.29 %ID/g in series [5] (setting [8]); 38 ± 2.9 %ID/g in series [5] (SCID/beige mice, 2 h after injection, PMPA coadministered, read-out: radioactivity concentration in kidneys with PMPA); 0.2 ± 0.06 %ID/g in series [5] (setting [9]); 18 ± 3.5 %ID/g in series [5] (setting [10]). In addition, the tissue uptake at 2 h in series [5] (setting [11]) is 12 ± 5.3 %ID/g.

Consider `Cc1ccc(P(/C(C(=O)O)=C(/C(=O)NCCOCCOCCOCCOCCC(=O)NCCCC[C@H](NC(=O)N[C@@H](CCC(=O)O)C(=O)O)C(=O)O)P(c2ccc(C)cc2)c2ccc(C)cc2)c2ccc(C)cc2)cc1` [[^188Re]Re-DP2-PSMAt] [metal not drawn], for which the “uptake in PC3 cells (in words)” value with PC3 cells is on record as “negligible uptake”. For the same compound, in series [1], the “uptake in LNCaP cells” value was determined as 2.6 ± 1.6 %AR and the “uptake in LNCaP cells with PMPA block” value was “could be blocked with PMPA”. The “uptake in parental DU145 cells” value in series [2] is on record as “negligible uptake”. Besides, in series [3], the “uptake in DU145-PSMA+ cells” value is 8.3 ±0.7 %AR and the “uptake in DU145-PSMA+ cells with PMPA block” value was “could be blocked with PMPA”. Also, in series [4], the “effect of PMPA coadministration on spleen uptake (in words)” value was “significantly inhibited uptake”, the “effect of PMPA coadministration on tumor uptake (in words)” value is reported as “significantly inhibited uptake” and the “radioactivity concentration in DU145-PSMA+ tumors” value turned out to be 19.2 ± 8.6 %ID/g.

In the case of `Cc1ccc(P(/C(C(=O)O)=C(/C(=O)NCCOCCOCCOCCOCCC(=O)NCCCC[C@H](NC(=O)N[C@@H](CCC(=O)O)C(=O)O)C(=O)O)P(c2ccc(C)cc2)c2ccc(C)cc2)c2ccc(C)cc2)cc1` [[^99mTc]Tc-DP2-PSMAt, metal not drawn], the tissue uptake at 2 h amounted to 0.18 ± 0.07 %ID/g in “in vivo”; 183 ± 23.8 %ID/g in series [5] (setting [7]); 0.76 ± 0.45 %ID/g in series [5] (setting [8]); 0.3 ± 0.18 %ID/g in series [5] (setting [9]); 29.4 ± 6.3 %ID/g in series [5] (setting [10]); 7.7 ± 3.4 %ID/g in series [5] (setting [11]).

For the compound `O=C(O)CC[C@H](NC(=O)N[C@@H](CCCCNC(=O)CCOCCOCCOCCOCCNC(=O)/C(=C(\C(=O)O)P(c1ccccc1)c1ccccc1)P(c1ccccc1)c1ccccc1)C(=O)O)C(=O)O` [[^188Re]Re-DP1-PSMAt, metal not drawn], the tissue uptake at 2 h in series [6] was 7 ± 2.3 %ID/g; in series [6] (setting [12]), 109 ± 13.3 %ID/g; in series [6] (setting [13]) it was 137 ± 34.6 %ID/g. Besides, the results for the tissue uptake at 24 h in series [6] and in series [6] (setting [14]) were 2.9 ± 0.8 %ID/g and 29.4 ± 4.9 %ID/g, respectively.

Regarding `Cc1ccc(P(/C(C(=O)O)=C(/C(=O)NCCOCCOCCOCCOCCC(=O)NCCCC[C@H](NC(=O)N[C@@H](CCC(=O)O)C(=O)O)C(=O)O)P(c2ccc(C)cc2)c2ccc(C)cc2)c2ccc(C)cc2)cc1` [[^188Re]Re-DP2-PSMAt, metal not drawn], the tissue uptake at 2 h is 9.8 ± 2.8 %ID/g in series [6], 128 ± 17.7 %ID/g in series [6] (setting [12]) and 163 ± 31.8 %ID/g in series [6] (setting [13]). For the same compound, the results for the tissue uptake at 24 h in series [6] and in series [6] (setting [14]) were 7.6 ± 4.4 %ID/g and 37 ± 12.2 %ID/g, respectively.
